Results: US20250152746A1, “BASE EDITING OF ANGPTL3 AND METHODS OF USING SAME FOR TREATMENT OF DISEASE” (Verve Therapeutics, Inc., priority 2020, published 2025)
Where two headings read alike, the source gives them in different places.

Legend:
ANGPTL3 gene [1] = assay: ANGPTL3 gRNA/SpCas9 editing in primary cynomolgus hepatocytes (Table 3); format: cell-based, cynomolgus monkey
Procedure: (§1) In set of experiments, PCSK9 gRNAs were co-transfected with an equivalent amount (1:1 ratio by weight) of in vitro transcribed commercially available SpCas9 mRNA MS002 purchased from TriLink Biotechnologies into primary human hepatocytes at 2500, 500, or 100 ng/RNA/mL and processed as described in detailed methods. Extracted genomic DNA was analyzed for gene editing at the target site with next-generation sequencing of PCR amplicons generated around the target sites. Samples were prepared using the Nextera XT DNA library preparation kit (Illumina) according to the manufacturer's protocol. Briefly, two rounds of PCR were performed first to amplify the region of interest and second to add DNA sequences required for next generation sequencing and sample identification to the initial product. The final amplicon was sequenced on the Illumina MiSeq instrument according to the manufacturer's protocol. A wide range of editing activities (Table 2) were observed. In a second set of experiments, ANGPTL3 gRNAs were co-transfected with an equivalent amount of in vitro transcribed SpCas9 mRNA (1:1 ratio by weight) into primary human hepatocytes and processed and analyzed similarly (Table 3).
(§2) Plating, culturing, and transfection of primary hepatocytes. Primary human liver hepatocytes (PHH) and primary cynomolgus liver hepatocytes (PCH) from BioIVT were cultured per the manufacturer's protocol. Briefly, primary human hepatocytes and primary cyno hepatocytes were obtained as frozen aliquots from BioIVT. Four lots of primary human hepatocytes, each derived from a de-identified individual donor, were used for the experiments: STL (main donor) was used for all experiments, including screening experiments and off-target experiments; HLY, JLP, and TLY were used for off-target experiments. The HFG lot of primary cyno hepatocytes were used for experiments. Following the manufacturer's instructions, cells were thawed and rinsed prior to plating in 24-well plates that had been coated with bovine collagen overnight, with a density of approximate 350,000 cells/well in INVITROGRO hepatocyte medium supplemented with TORPEDO antibiotic mix (BioIVT). The cells were thawed and resuspended in hepatocyte thawing medium followed by centrifugation at 100 g for 10 min at 4° C. The supernatant was discarded, and the pelleted cells resuspended in hepatocyte plating medium. Each vial contains approximately 5 million cells that were used for plating one 24-well plate. Plated cells were allowed to settle and adhere for 4-6 h in a tissue culture incubator at 37° C. under 5% CO2 atmosphere. After incubation, cells were checked for monolayer formation. The incubating media were then replaced with fresh hepatocyte maintenance media (complete INVITROGRO medium obtained from BioIVT, the cell line provider). The cells thus became ready for transfection. Each of the gRNAs were co-transfected with an equivalent amount of in vitro transcribed ABE8.8 mRNA (1:1 ratio by molecular weight) into primary human hepatocytes via MessengerMax reagent (Lipofectamine), using various dilutions to assess for editing activity at different concentrations of test article. MessengerMAX from Thermo Fisher is used for transfection. Solution A: desired amount of guide RNA is mixed with 1:1 wt ratio of mRNA in OptiMEM. Solution B: MessengerMAX in OptiMEM. After mixing solutions A and B, the mixture was incubated at room temperature for 20 min. 60 μL of the incubated solution was added dropwise to each cell wells. For protospacer sequences that were a perfect match to the corresponding cynomolgous monkey PCSK9 or ANGPTL3 gene sequence, each gRNA was also co-transfected with an equivalent amount of ABE8.8 mRNA (1:1 ratio by molecular weight) into primary cynomolgous hepatocytes, and followed the same transfection protocol. The cells were then allowed to remain at 37° C. for 3 days. […]

ANGPTL3 gene [2] = assay: ANGPTL3 gRNA/SpCas9 editing in primary human hepatocytes (Table 3); format: cell-based
Procedure: as §1, §2

B1: GA126: ANGPTL3 gRNA; protospacer GGAGTAGTTCTTGGTGCTCT (SEQ ID NO: 124) (nucleic acid)
guide: GGAGTAGTTCTTGGTGCTCTGTTTTAGAGCTAGAAATAGCAAGTTAAAATAAGGCTAGTCCGTTATCAACTTGAAAAAGTGGCACCGAGTCGGTGCTTTT
modifications: 2'-O-methyl at 1, 2, other sugars and backbone not given here; further chemistry not fully specified
Cyno Primary Hepatocyte Editing % 100 ng/mL (ANGPTL3 gene [1]): 8.29%
Cyno Primary Hepatocyte Editing % 500 ng/ml (ANGPTL3 gene [1]): 17.57%
Human Primary Hepatocyte Editing % 100 ng/ml (ANGPTL3 gene [2]): 6.73%
Human Primary Hepatocyte Editing % 500 ng/mL (ANGPTL3 gene [2]): 15.21%

B2: GA117: ANGPTL3 gRNA; protospacer ACTACAAGTCAAAAATGAAG (SEQ ID NO: 115) (nucleic acid)
guide: ACTACAAGTCAAAAATGAAGGTTTTAGAGCTAGAAATAGCAAGTTAAAATAAGGCTAGTCCGTTATCAACTTGAAAAAGTGGCACCGAGTCGGTGCTTTT
modifications: 2'-O-methyl at 1, 2, other sugars and backbone not given here; further chemistry not fully specified
Cyno Primary Hepatocyte Editing % 100 ng/mL (ANGPTL3 gene [1]): 10.01%
Cyno Primary Hepatocyte Editing % 500 ng/ml (ANGPTL3 gene [1]): 26.11%
Human Primary Hepatocyte Editing % 100 ng/ml (ANGPTL3 gene [2]): 7.08%
Human Primary Hepatocyte Editing % 500 ng/mL (ANGPTL3 gene [2]): 16.55%

B3: GA127: ANGPTL3 gRNA; protospacer AACATGATGGTAAGACACTT (SEQ ID NO: 125) (nucleic acid)
guide: AACATGATGGTAAGACACTTGTTTTAGAGCTAGAAATAGCAAGTTAAAATAAGGCTAGTCCGTTATCAACTTGAAAAAGTGGCACCGAGTCGGTGCTTTT
modifications: 2'-O-methyl at 1, 2, other sugars and backbone not given here; further chemistry not fully specified
Cyno Primary Hepatocyte Editing % 100 ng/mL (ANGPTL3 gene [1]): 19.89%
Cyno Primary Hepatocyte Editing % 500 ng/ml (ANGPTL3 gene [1]): 33.67%
Human Primary Hepatocyte Editing % 100 ng/ml (ANGPTL3 gene [2]): 5.77%
Human Primary Hepatocyte Editing % 500 ng/mL (ANGPTL3 gene [2]): 18.74%

B4: GA131: ANGPTL3 gRNA; protospacer GAAGATAGAGAAATTTCTGT (SEQ ID NO: 129) (nucleic acid)
guide: GAAGATAGAGAAATTTCTGTGTTTTAGAGCTAGAAATAGCAAGTTAAAATAAGGCTAGTCCGTTATCAACTTGAAAAAGTGGCACCGAGTCGGTGCTTTT
modifications: 2'-O-methyl at 1, 2, other sugars and backbone not given here; further chemistry not fully specified
Cyno Primary Hepatocyte Editing % 100 ng/mL (ANGPTL3 gene [1]): 10.10%
Cyno Primary Hepatocyte Editing % 500 ng/ml (ANGPTL3 gene [1]): 27.57%
Human Primary Hepatocyte Editing % 500 ng/mL (ANGPTL3 gene [2]): 18.64%

B5: GA125: ANGPTL3 gRNA; protospacer TGATGGTAAGACACTTTGGT (SEQ ID NO: 123) (nucleic acid)
guide: UGATGGTAAGACACTTTGGTGTTTTAGAGCTAGAAATAGCAAGTTAAAATAAGGCTAGTCCGTTATCAACTTGAAAAAGTGGCACCGAGTCGGTGCTTTT
modifications: 2'-O-methyl at 1, 2, other sugars, backbone and T or U not given here; further chemistry not fully specified
Cyno Primary Hepatocyte Editing % 100 ng/mL (ANGPTL3 gene [1]): 12.91%
Cyno Primary Hepatocyte Editing % 500 ng/ml (ANGPTL3 gene [1]): 19.72%
Human Primary Hepatocyte Editing % 100 ng/ml (ANGPTL3 gene [2]): 5.04%
Human Primary Hepatocyte Editing % 500 ng/mL (ANGPTL3 gene [2]): 16.27%

B6: GA130: ANGPTL3 gRNA; protospacer ATGATGGTAAGACACTTTGG (SEQ ID NO: 128) (nucleic acid)
guide: AUGATGGTAAGACACTTTGGGTTTTAGAGCTAGAAATAGCAAGTTAAAATAAGGCTAGTCCGTTATCAACTTGAAAAAGTGGCACCGAGTCGGTGCTTTT
modifications: 2'-O-methyl at 1, 2, other sugars, backbone and T or U not given here; further chemistry not fully specified
Cyno Primary Hepatocyte Editing % 100 ng/mL (ANGPTL3 gene [1]): 14.60%
Cyno Primary Hepatocyte Editing % 500 ng/ml (ANGPTL3 gene [1]): 25.90%
Human Primary Hepatocyte Editing % 100 ng/ml (ANGPTL3 gene [2]): 7.51%
Human Primary Hepatocyte Editing % 500 ng/mL (ANGPTL3 gene [2]): 17.09%

B7: GA132: ANGPTL3 gRNA; protospacer GGAAGATAGAGAAATTTCTG (SEQ ID NO: 130) (nucleic acid)
guide: GGAAGATAGAGAAATTTCTGGTTTTAGAGCTAGAAATAGCAAGTTAAAATAAGGCTAGTCCGTTATCAACTTGAAAAAGTGGCACCGAGTCGGTGCTTTT
modifications: 2'-O-methyl at 1, 2, other sugars and backbone not given here; further chemistry not fully specified
Cyno Primary Hepatocyte Editing % 100 ng/mL (ANGPTL3 gene [1]): 15%
Cyno Primary Hepatocyte Editing % 500 ng/ml (ANGPTL3 gene [1]): 26%
Human Primary Hepatocyte Editing % 100 ng/ml (ANGPTL3 gene [2]): 15.25%
Human Primary Hepatocyte Editing % 500 ng/mL (ANGPTL3 gene [2]): 28.39%

B8: GA137: ANGPTL3 gRNA; protospacer TATCAGGTAAAACCTGTCTA (SEQ ID NO: 135) (nucleic acid)
guide: UATCAGGTAAAACCTGTCTAGTTTTAGAGCTAGAAATAGCAAGTTAAAATAAGGCTAGTCCGTTATCAACTTGAAAAAGTGGCACCGAGTCGGTGCTTTT
modifications: 2'-O-methyl at 1, 2, other sugars, backbone and T or U not given here; further chemistry not fully specified
Cyno Primary Hepatocyte Editing % 100 ng/mL (ANGPTL3 gene [1]): 28.01%
Cyno Primary Hepatocyte Editing % 500 ng/ml (ANGPTL3 gene [1]): 30.57%
Human Primary Hepatocyte Editing % 100 ng/ml (ANGPTL3 gene [2]): 11.44%
Human Primary Hepatocyte Editing % 500 ng/mL (ANGPTL3 gene [2]): 29.70%

B9: GA141: ANGPTL3 gRNA; protospacer TTGAGAGTTGCTGGGTCTGA (SEQ ID NO: 139) (nucleic acid)
guide: UUGAGAGTTGCTGGGTCTGAGTTTTAGAGCTAGAAATAGCAAGTTAAAATAAGGCTAGTCCGTTATCAACTTGAAAAAGTGGCACCGAGTCGGTGCTTTT
modifications: 2'-O-methyl at 1, 2, other sugars, backbone and T or U not given here; further chemistry not fully specified
Cyno Primary Hepatocyte Editing % 100 ng/mL (ANGPTL3 gene [1]): 5.49%
Cyno Primary Hepatocyte Editing % 500 ng/ml (ANGPTL3 gene [1]): 10.32%
Human Primary Hepatocyte Editing % 100 ng/ml (ANGPTL3 gene [2]): 5.80%
Human Primary Hepatocyte Editing % 500 ng/mL (ANGPTL3 gene [2]): 14.87%

B10: GA142: ANGPTL3 gRNA; protospacer TGAAAAACTTGAGAGTTGCT (SEQ ID NO: 140) (nucleic acid)
guide: UGAAAAACTTGAGAGTTGCTGTTTTAGAGCTAGAAATAGCAAGTTAAAATAAGGCTAGTCCGTTATCAACTTGAAAAAGTGGCACCGAGTCGGTGCTTTT
modifications: 2'-O-methyl at 1, 2, other sugars, backbone and T or U not given here; further chemistry not fully specified
Cyno Primary Hepatocyte Editing % 100 ng/mL (ANGPTL3 gene [1]; 100 ng/mL, SpCas9 mRNA 1:1 by weight): 20.09%
Cyno Primary Hepatocyte Editing % 500 ng/ml (ANGPTL3 gene [1]; 500 ng/ml, SpCas9 mRNA 1:1 by weight): 27.59%
Human Primary Hepatocyte Editing % 100 ng/ml (ANGPTL3 gene [2]; 100 ng/ml, SpCas9 mRNA 1:1 by weight): 10.50%
Human Primary Hepatocyte Editing % 500 ng/mL (ANGPTL3 gene [2]; 500 ng/mL, SpCas9 mRNA 1:1 by weight): 24.90%

B11: GA122: ANGPTL3 gRNA; protospacer CTTTTATTTGACTATGCTGT (SEQ ID NO: 120) (nucleic acid)
guide: CUTTTATTTGACTATGCTGTGTTTTAGAGCTAGAAATAGCAAGTTAAAATAAGGCTAGTCCGTTATCAACTTGAAAAAGTGGCACCGAGTCGGTGCTTTT
modifications: 2'-O-methyl at 1, 2, other sugars, backbone and T or U not given here; further chemistry not fully specified
Cyno Primary Hepatocyte Editing % 100 ng/mL (ANGPTL3 gene [1]): 7.28%
Cyno Primary Hepatocyte Editing % 500 ng/ml (ANGPTL3 gene [1]): 16.76%
Human Primary Hepatocyte Editing % 100 ng/ml (ANGPTL3 gene [2]): 4.45%
Human Primary Hepatocyte Editing % 500 ng/mL (ANGPTL3 gene [2]): 13.82%

B12: GA128: ANGPTL3 gRNA; protospacer TGAAGAAAGGGAGTAGTTCT (SEQ ID NO: 126) (nucleic acid)
guide: UGAAGAAAGGGAGTAGTTCTGTTTTAGAGCTAGAAATAGCAAGTTAAAATAAGGCTAGTCCGTTATCAACTTGAAAAAGTGGCACCGAGTCGGTGCTTTT
modifications: 2'-O-methyl at 1, 2, other sugars, backbone and T or U not given here; further chemistry not fully specified
Cyno Primary Hepatocyte Editing % 100 ng/mL (ANGPTL3 gene [1]): 0.19%
Cyno Primary Hepatocyte Editing % 500 ng/ml (ANGPTL3 gene [1]): 32.55%
Human Primary Hepatocyte Editing % 100 ng/ml (ANGPTL3 gene [2]): 10.29%
Human Primary Hepatocyte Editing % 500 ng/mL (ANGPTL3 gene [2]): 25.39%
